Consider 25 molecules from patent publication US20220411483A1 (Chugai, published 2022).

The labels stand for the following.
T1: FcgRIIb (human, UniProt P31994 43-217)
T1 construct: extracellular domain; also called FcγRIIb
T1 sequence (looked up): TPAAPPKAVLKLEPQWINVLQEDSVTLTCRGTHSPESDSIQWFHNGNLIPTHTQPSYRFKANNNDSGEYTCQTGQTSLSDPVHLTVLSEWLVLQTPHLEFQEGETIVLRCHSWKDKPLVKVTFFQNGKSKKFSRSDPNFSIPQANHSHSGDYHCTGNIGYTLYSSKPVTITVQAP

T2: FcgRIIaR (human, UniProt P12318 34-217)
T2 construct: extracellular domain; also called FcγRIIa R type; FcγRIIa (R type)
T2 sequence (looked up): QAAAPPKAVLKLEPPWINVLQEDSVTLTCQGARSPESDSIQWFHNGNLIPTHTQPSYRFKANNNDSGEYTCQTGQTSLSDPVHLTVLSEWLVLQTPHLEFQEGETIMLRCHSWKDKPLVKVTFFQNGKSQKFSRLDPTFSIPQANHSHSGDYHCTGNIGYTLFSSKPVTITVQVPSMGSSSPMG

B1: IL6R-P559/IL6R-L (antibody, human IgG1, kappa)
heavy: QVQLQESGPGLVKPSETLSLTCAVSGHSISHDHAWSWVRQPPGEGLEWIGFISYSGITNYNPSLQGRVTISRDNSKNTLYLQMNSLRAEDTAVYYCARSLARTTAMDYWGEGTLVTVSSASTKGPSVFPLAPSSKSTSGGTAALGCLVKDYFPEPVTVSWNSGALTSGVHTFPAVLQSSGLYSLSSVVTVPSSSLGTQTYICNVNHKPSNTKVDKKVEPKSCDKTHTCPPCPAPELLGDDSVFLFPPKPKDTLMISRTPEVTCVVVDVSEEDGEVKFNWYVDGVEVHNAKTKPREEQYNSTYRVVSVLTVLHQDWLNGKEYKCKVSNKALPAPIEKTISKAKGQPREPQVYTLPPSRDELTKNQVSLTCLVKGFYPSDIAVEWESNGQPENNYKTTPPVLDSDGSFFLYSKLTVDKSRWQQGNVFSCSVMHEALHNHYTQKSLSLSP
light: not shown
B2: IL6R-P737/IL6R-L (antibody, human IgG1, kappa)
heavy: B1 heavy with D239Q, F243M, E270P, G273P, Y298E, S326H, A332H
light: not shown
B3: IL6R-P587/IL6R-L (antibody, human IgG1, kappa)
heavy: B1 heavy with E235D, D239G, V266I, S269A
light: not shown
B4: IL6R-P757/IL6R-L (antibody, human IgG1, kappa)
heavy: B1 heavy with D239G, V266I, S269A, A329G, A332S, P333S
light: not shown
B5: IL6R-P753/IL6R-L (antibody, human IgG1, kappa)
heavy: B1 heavy with L237F, D239Q, F243M, E270P, G273P, Y298E, K324E, S326H
light: not shown
B6: IL6R-P691/IL6R-L (antibody, human IgG1, kappa)
heavy: B1 heavy with L237F, D239Q, F243M, E270H, G273P, Y298E
light: not shown
B7: IL6R-P744/IL6R-L (antibody, human IgG1, kappa)
heavy: B1 heavy with D239G, E270H, G273P, S300A, K324A
light: not shown
B8: IL6R-P747/IL6R-L (antibody, human IgG1, kappa)
heavy: B1 heavy with L237F, D239Q, F243M, E270H, G273P, Y298E, K324E
light: not shown
B9: IL6R-P749/IL6R-L (antibody, human IgG1, kappa)
heavy: B1 heavy with D239Q, F243M, E270P, G273P, Y298E, K324E, A332H
light: not shown
B10: IL6R-P750/IL6R-L (antibody, human IgG1, kappa)
heavy: B1 heavy with L237F, D239Q, F243M, E270P, G273P, Y298E, K324A
light: not shown
B11: IL6R-P748/IL6R-L (antibody, human IgG1, kappa)
heavy: B1 heavy with D239Q, F243M, E270P, G273P, Y298E, K324A, A332H
light: not shown
B12: IL6R-P746/IL6R-L (antibody, human IgG1, kappa)
heavy: B1 heavy with L237F, D239Q, F243M, E270H, G273P, Y298E, K324A
light: not shown
B13: IL6R-P751/IL6R-L (antibody, human IgG1, kappa)
heavy: B1 heavy with L237F, D239Q, F243M, E270P, G273P, Y298E, K324E
light: not shown
B14: IL6R-P588/IL6R-L (antibody, human IgG1, kappa)
heavy: B1 heavy with D239G, V266I, S269A
light: not shown
B15: IL6R-P562/IL6R-L (antibody, human IgG1, kappa)
heavy: B1 heavy with E235D
light: not shown
B16: IL6R-P756/IL6R-L (antibody, human IgG1, kappa)
heavy: B1 heavy with E235D, D239G, V266I, S269A, A329G, A332S, P333S
light: not shown
B17: IL6R-P752/IL6R-L (antibody, human IgG1, kappa)
heavy: B1 heavy with L237F, D239Q, F243M, E270P, G273P, Y298E, K324A, S326H
light: not shown
B18: IL6R-P755/IL6R-L (antibody, human IgG1, kappa)
heavy: B1 heavy with D239Q, F243M, E270P, G273P, Y298E, K324E, S326H, A332H
light: not shown
B19: IL6R-P733/IL6R-L (antibody, human IgG1, kappa)
heavy: B1 heavy with L237F, D239Q, F243M, E270P, G273P, Y298E, S326H
light: not shown
B20: IL6R-P745/IL6R-L (antibody, human IgG1, kappa)
heavy: B1 heavy with D239G, E270H, G273P, S300A, K324E
light: not shown
B21: IL6R-P754/IL6R-L (antibody, human IgG1, kappa)
heavy: B1 heavy with D239Q, F243M, E270P, G273P, Y298E, K324A, S326H, A332H
light: not shown
B22: IL6R-P727/IL6R-L (antibody, human IgG1, kappa)
heavy: B1 heavy with D239Q, F243M, E270P, G273P, Y298E, A332H
light: not shown
B23: IL6R-P758/IL6R-L (antibody, human IgG1, kappa)
heavy: B1 heavy with E270D, A329G, A332S, P333S
light: not shown
B24: IL6R-P729/IL6R-L (antibody, human IgG1, kappa)
heavy: B1 heavy with L237F, D239Q, F243M, E270P, G273P, Y298E
light: not shown
B25: IL6R-P743/IL6R-L (antibody, human IgG1, kappa)
heavy: B1 heavy with D239G, E270H, G273P, A329G, A332S, P333S
light: not shown

Numbering of substitutions follows the chain as printed.

In the first assay the target is T1, FcgRIIb. The assay is described as follows: SPR, amount bound per captured antibody.
Consider B1, for which the “Relative FcgRIIb-binding Activity” value was found to be 319 IL6R-G1d/IL6R-L=100.
For the molecule B2, the “Relative FcgRIIb-binding Activity” value came to 78.7 IL6R-G1d/IL6R-L=100.
Take B3: the “Relative FcgRIIb-binding Activity” value amounted to 350 IL6R-G1d/IL6R-L=100.
Still for that read-out and setting: for B4 the value was 327 IL6R-G1d/IL6R-L=100; for B5, 103 IL6R-G1d/IL6R-L=100.
Same read-out and setting: for B6 the value was 119 IL6R-G1d/IL6R-L=100.
The same measure, in the same setting: for B7 the value was 81.4 IL6R-G1d/IL6R-L=100.
As to B8, the “Relative FcgRIIb-binding Activity” value worked out at 98.1 IL6R-G1d/IL6R-L=100.
Still for that read-out and setting: for B9 the value was 73.9 IL6R-G1d/IL6R-L=100.
Consider B10, for which the “Relative FcgRIIb-binding Activity” value is 48.1 IL6R-G1d/IL6R-L=100.
On the same count and under the same terms, for B11 the value was 42.7 IL6R-G1d/IL6R-L=100.
On the same count and under the same terms, for B12 the value was 57.5 IL6R-G1d/IL6R-L=100; for B13, 72.5 IL6R-G1d/IL6R-L=100.
The same measure, in the same setting: for B14 the value was 346 IL6R-G1d/IL6R-L=100; for B15, 311 IL6R-G1d/IL6R-L=100; for B16, 323 IL6R-G1d/IL6R-L=100.
B17: the “Relative FcgRIIb-binding Activity” value turned out to be 62.9 IL6R-G1d/IL6R-L=100.
For the molecule B18, the “Relative FcgRIIb-binding Activity” value amounted to 130 IL6R-G1d/IL6R-L=100.
On the same count and under the same terms, for B19 the value was 84.8 IL6R-G1d/IL6R-L=100; for B20, 95.4 IL6R-G1d/IL6R-L=100.
On the same count and under the same terms, for B21 the value was 85.8 IL6R-G1d/IL6R-L=100.
For the molecule B22, the “Relative FcgRIIb-binding Activity” value came to 93 IL6R-G1d/IL6R-L=100.
In the case of B23, the “Relative FcgRIIb-binding Activity” value was 285 IL6R-G1d/IL6R-L=100.
On the same count and under the same terms, for B24 the value was 100 IL6R-G1d/IL6R-L=100; for B25, 69.4 IL6R-G1d/IL6R-L=100.

The target in another assay is T2, FcgRIIaR. Kind of assay: SPR, amount bound per captured antibody.
For the molecule B1, the “Relative FcgRIIaR-binding Activity” value turned out to be 89.4 IL6R-G1d/IL6R-L=100.
On the same count and under the same terms, for B2 the value was 8 IL6R-G1d/IL6R-L=100; for B3, 106 IL6R-G1d/IL6R-L=100.
On the same count and under the same terms, for B4 the value was 89.2 IL6R-G1d/IL6R-L=100; for B5, 10.4 IL6R-G1d/IL6R-L=100.
On the same count and under the same terms, for B6 the value was 10.8 IL6R-G1d/IL6R-L=100; for B7, 11.1 IL6R-G1d/IL6R-L=100; for B8, 10 IL6R-G1d/IL6R-L=100.
Take B9: the “Relative FcgRIIaR-binding Activity” value is 6.8 IL6R-G1d/IL6R-L=100.
Same read-out and setting: for B10 the value was 6.1 IL6R-G1d/IL6R-L=100; for B11, 5.1 IL6R-G1d/IL6R-L=100.
The same measure, in the same setting: for B12 the value was 7 IL6R-G1d/IL6R-L=100; for B13, 7.4 IL6R-G1d/IL6R-L=100; for B14, 100 IL6R-G1d/IL6R-L=100.
Same read-out and setting: for B15 the value was 89.7 IL6R-G1d/IL6R-L=100; for B16, 92.4 IL6R-G1d/IL6R-L=100.
Consider B17, for which the “Relative FcgRIIaR-binding Activity” value came out at 7.2 IL6R-G1d/IL6R-L=100.
Turning to B18, the “Relative FcgRIIaR-binding Activity” value came out at 9.8 IL6R-G1d/IL6R-L=100.
On the same count and under the same terms, for B19 the value was 8.1 IL6R-G1d/IL6R-L=100.
Same read-out and setting: for B20 the value was 13.7 IL6R-G1d/IL6R-L=100.
Same read-out and setting: for B21 the value was 5.6 IL6R-G1d/IL6R-L=100; for B22, 9.7 IL6R-G1d/IL6R-L=100.
For B23, the “Relative FcgRIIaR-binding Activity” value came out at 90.6 IL6R-G1d/IL6R-L=100.
The same measure, in the same setting: for B24 the value was 9 IL6R-G1d/IL6R-L=100.
The same measure, in the same setting: for B25 the value was 13.5 IL6R-G1d/IL6R-L=100.

The target in the next assay is T3, human complement C1q (human, UniProt P02745 23-245; P02746 28-253; P02747 29-245).
T3 construct: Bought (PROSPEC or Calbiochem); also called human C1q
T3 sequence (P02745 23-245 limits assumed, chain 1 of 3): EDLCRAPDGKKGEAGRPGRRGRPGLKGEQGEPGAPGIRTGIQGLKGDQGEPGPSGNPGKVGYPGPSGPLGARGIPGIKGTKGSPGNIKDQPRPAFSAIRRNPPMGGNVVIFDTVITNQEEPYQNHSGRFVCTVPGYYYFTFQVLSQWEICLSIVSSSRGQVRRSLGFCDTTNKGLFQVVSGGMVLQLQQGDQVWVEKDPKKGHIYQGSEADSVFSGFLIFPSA
T3 sequence (P02746 28-253 limits assumed, chain 2 of 3): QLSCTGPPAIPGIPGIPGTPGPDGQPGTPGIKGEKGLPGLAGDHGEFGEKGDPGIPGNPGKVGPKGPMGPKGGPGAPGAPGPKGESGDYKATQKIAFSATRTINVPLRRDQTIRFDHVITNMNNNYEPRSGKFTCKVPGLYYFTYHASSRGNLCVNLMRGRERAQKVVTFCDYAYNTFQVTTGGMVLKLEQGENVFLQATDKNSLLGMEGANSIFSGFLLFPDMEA
T3 sequence (P02747 29-245 limits assumed, chain 3 of 3): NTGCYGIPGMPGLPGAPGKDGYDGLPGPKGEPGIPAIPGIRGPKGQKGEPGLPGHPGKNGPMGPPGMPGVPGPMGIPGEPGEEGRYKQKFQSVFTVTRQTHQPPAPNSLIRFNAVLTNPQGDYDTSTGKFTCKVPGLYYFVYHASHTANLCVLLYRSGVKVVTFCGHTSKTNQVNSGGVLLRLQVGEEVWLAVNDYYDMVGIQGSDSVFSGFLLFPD
Kind of assay: SPR, C1q bound per antibody captured on Protein L. On the procedure:
The interaction between an antibody and human C1q was analyzed using Biacore T200 (GE Healthcare). HBS-EP+ (GE Healthcare) was used as the running buffer, and the measurement temperature was set at 25° C. Chips produced by immobilizing Protein L (ACTIGEN or BioVision) onto Series S sensor Chip CM4 (GE Healthcare) by amine coupling were used.
The antibodies of interest were captured onto these sensor chips, and allowed to interact with human complement C1q (PROSPEC or Calbiochem) diluted in the running buffer. The amount of antibody binding was determined, and comparisons were made among the antibodies. However, since the amount of C1q bound depends on the amount of captured antibodies, corrected values obtained by dividing the amount of C1q bound by the amount of each antibody captured were compared. Furthermore, by reaction with 10 mM glycine-HCl, pH 1.5, the antibodies captured onto the sensor chips were washed, and the sensor chips were recycled and reused.
For B1, the “Amount of C1q-binding when that for G1d is Defined as 100” value (“Amount of C1q-binding when that” for short) was 34.1 G1d=100.
Turning to B2, the “Amount of C1q-binding when that” value came to 45.7 G1d=100.
Still for that read-out and setting: for B3 the value was 132 G1d=100; for B4, 22.6 G1d=100.
Same read-out and setting: for B5 the value was 14 G1d=100.
Consider B6, for which the “Amount of C1q-binding when that” value is 21 G1d=100.
Still for that read-out and setting: for B7 the value was 13.6 G1d=100.
Still for that read-out and setting: for B8 the value was 13.7 G1d=100.
On the same count and under the same terms, for B9 the value was 13.8 G1d=100.
Regarding B10, the “Amount of C1q-binding when that” value is 1.2 G1d=100.
With B11, the “Amount of C1q-binding when that” value is 1.4 G1d=100.
Consider B12, for which the “Amount of C1q-binding when that” value turned out to be 1.4 G1d=100.
With B13, the “Amount of C1q-binding when that” value came to 13.9 G1d=100.
The same measure, in the same setting: for B14 the value was 108 G1d=100; for B15, 29.4 G1d=100; for B16, 15 G1d=100.
Still for that read-out and setting: for B17 the value was 1.1 G1d=100.
Consider B18, for which the “Amount of C1q-binding when that” value came out at 14.4 G1d=100.
Regarding B19, the “Amount of C1q-binding when that” value amounted to 23 G1d=100.
Still for that read-out and setting: for B20 the value was 20.9 G1d=100; for B21, 1.8 G1d=100.
On the same count and under the same terms, for B22 the value was 35.5 G1d=100.
On to B23, for which the “Amount of C1q-binding when that” value is 2 G1d=100.
The same measure, in the same setting: for B24 the value was 22.8 G1d=100; for B25, 20.9 G1d=100.
